The series in a line: yeast display, Sf9 membrane polyspecificity reagent, FACS + sequencing; frameworks hold sequencing errors. Put shortly:
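Polyreactivity labels are assigned by the sorting gate from which each nanobody was recovered. The gates were low and high (top ~1%), set on anti-HA fluorescence for expression and streptavidin fluorescence for reagent binding. Before sorting, galactose-induced (36–48 hours) yeast display cells were stained for 1 hour at 4 °C with 10% biotinylated, detergent-solubilized Sf9 membrane reagent.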
Take “QVQLVESGGGLVQAGGSLRLICAASGSIFSIYAMGWYRQAPGKERELVAAITWGGGSTYYADSVKGRFTISRDNAKNTVYLQINSLKPEDTAVYDCAAESLTWYGTYYYWGQGTQVTVSS”: the “polyreactivity (PSR sort gate)” value is given as “high polyreactivity”.

Take “QVQLVESGGGLVQAGGSLRLICAASGSIFSKYVMGWYREAPGKERDLVAAISWSGTRTYYADSVKGRFTISRDNAKNTVILQMNSMKAEDTAVYYCAARRLYAGHQYDYWGQGTIVTVSS”: the “polyreactivity (PSR sort gate)” value was “high polyreactivity”.

Consider “QVQLVESGGGLVQAGGSLRLICAASGSIFTKYTMGWSRQAPGKERELVAAITLRGTSTYYADSVKGRFTISRDNAMNTVYLQMNSLIPEDTAFYYCNKLYSWVVAYDYWGQGTQVTVSS”, for which the “polyreactivity (PSR sort gate)” value is “high polyreactivity”.

As to “QVQLVESGGGLVQAGGSLRLICAASGSIFVNNGMGWYRQAPGKERELVAAIRLSTGSTYYADSVKGRFPISRDNAKNTVYLQMNSLKPEDTAVYYCATRYYIWGNWGQGTQVTVSS”, the “polyreactivity (PSR sort gate)” value is “high polyreactivity”.

Take “QVQLVESGGGLVQAGGSLRLICAASGSIFWGYAIGWFRPAPGKERELVAGITATGGSTYYADSVKGRFTISRDNAKNTVYLPMNSLKPEDTAVYYCAAEHGRLATYTWWVIYDYWGHGTQVTVSS”: the “polyreactivity (PSR sort gate)” value is listed as “low polyreactivity”.

On to “QVQLVESGGGLVQAGGSLRLICAASGSIFYGNTMGWYRQARGKERELVAAISSGGSTYYADSVKGRFTISRDNAKNSVYLQMNSLKPEDTAVYYCAREDYSHSFLTYDYWGQGSQVTVSS”, for which the “polyreactivity (PSR sort gate)” value is recorded as “low polyreactivity”.

In the case of “QVQLVESGGGLVQAGGSLRLICAASGSIFYYNVMGWYRQAPGKEREWVAAIDIDGSTYYADSVNGRFTIARDNAKNTVYLQMNSLKPADTAVYYCNAQAPYWFSFYSDHKYDYWGLGTQVTVSS”, the “polyreactivity (PSR sort gate)” value is listed as “low polyreactivity”.

As for “QVQLVESGGGLVQAGGSLRLICAASGSILGTYAMGWYRQAPGNDRELVAAISSSGRTSYADSVKGRFTISRDNAKNTVYLQMNSLKPEETAVYYCNASNYIFLINDPDAAPWLYDYWGQGSQVTVSS”, the “polyreactivity (PSR sort gate)” value is given as “low polyreactivity”.

As to “QVQLVESGGGLVQAGGSLRLICAASGSIVKNYAMGWYTQAPGKERELVAVISSGGSTNYADSVKGRFTISRDNAKYTVYLHMNSLIPEDTAVYSCAAERKSRGFWYDYWGQGTQVTVSS”, the “polyreactivity (PSR sort gate)” value is listed as “high polyreactivity”.

As for “QVQLVESGGGLVQAGGSLRLICAASGSTFAGNTMGWYRQAPGKERELVATITSDGSTDYADSVKGRFTISRDNAKNTVYYQMNSLKAEDPAVYYCAKARGLSKMDSWGQGTQVTVSS”, the “polyreactivity (PSR sort gate)” value is listed as “low polyreactivity”.

On to “QVQLVESGGGLVQAGGSLRLICAASGSTFARNAMGWYRQAPGKERELVAAITTRGSSTYYADSVKGRFTISRDNAKNTVYLQMNSLKPEDTAVYYCAADSRRSWYWGGYRQTGMGYWGQGTQLTVSS”, for which the “polyreactivity (PSR sort gate)” value is on record as “high polyreactivity”.

On to “QVQLVESGGGLVQAGGSLRLICAASGSTFDANAMGWYRQAPGKERELVAAITSNGGSTYYADSVKARFTISRDNAKNTVYLQMNSLKPEDTAVYYCATEQHTVQDYDFWGQGTQVTVSS”, for which the “polyreactivity (PSR sort gate)” value is on record as “low polyreactivity”.

Turning to “QVQLVESGGGLVQAGGSLRLICAASGSTFESYAMGWYRQAPGKERELVAAISRRGGRTYYADSVKGRFTISRDNAMNTVSLQMYSLKPEDTAVYYCATDSSYYGSDDYWGQGTQVTVSS”, the “polyreactivity (PSR sort gate)” value is “high polyreactivity”.

Regarding “QVQLVESGGGLVQAGGSLRLICAASGSTFGVNAMGWYRQAPGKERELVAVITRSGGSTYYADSVKGRFTISRDNAKNTVYLEMNSLKPEDTAVYYCAKSGVVDWGQGTQVTVSS”, the “polyreactivity (PSR sort gate)” value is “low polyreactivity”.

With “QVQLVESGGGLVQAGGSLRLICAASGSTFGVYDMGWYRKAPGKERELVAAISWRGITYYADSVKGRFTISRDNAKNTVYLQMNSLNPEDTAVYFCASYEWLAYTSAWYGYWGKGTQVTVSS”, the “polyreactivity (PSR sort gate)” value was “high polyreactivity”.

As to “QVQLVESGGGLVQAGGSLRLICAASGSTFGYYTMGWYRQAPGKERELVAAISSGGSRTNYADSVKGRFTISRDNAKNTVYLQMNSLIPEDTAVYYCAAGPVSYVRYGSEYDYWGQGTQVTVSS”, the “polyreactivity (PSR sort gate)” value is “high polyreactivity”.

In the case of “QVQLVESGGGLVQAGGSLRLICAASGSTFKYNAMGWYRQAPGKERELVAAITYSGSSTYYADSVKGRFTISRDNAKNTVYLQMNSLKPEDTAVYYCAAGDLAKYRSYSYYYWGQGTQVTLSS”, the “polyreactivity (PSR sort gate)” value is “high polyreactivity”.

Consider “QVQLVESGGGLVQAGGSLRLICAASGSTFLKYAMGWYRQAPGKERELVAAITYRGGTTYYADSVKGRFTISRDNAKNTVYLQMNSLKPEDTAVYYCAARGYKRMGYWGQGTQVTVSS”, for which the “polyreactivity (PSR sort gate)” value is given as “high polyreactivity”.

For “QVQLVESGGGLVQAGGSLRLICAASGSTFNIYAMGWYRQAPGKERELVAAITSSGGSTYYAESVKGRFTISRDNGKNTVYLQMNSLKPEYTAVYYCNTDQYSPYEYSSFDSWGQGSQVTVSS”, the “polyreactivity (PSR sort gate)” value is “low polyreactivity”.

Take “QVQLVESGGGLVQAGGSLRLICAASGSTFRNYAMGWYRQAPGKEREFVAAITWSGGRTYYADSVKGRFTISRDNAKNTVYLQMNSLKPEDTAVYYCAARYRRGYDYWGQGTQVTVSS”: the “polyreactivity (PSR sort gate)” value is on record as “high polyreactivity”.

Consider “QVQLVESGGGLVQAGGSLRLICAASGSTFRYYAMVLYRQAPGKERELVAAISGTGSTYYADSVKGRFTISRDNAKNTVYLQMNSLKPEDTAVYYCAAYPRASQRYNYWGQGTQVTVSS”, for which the “polyreactivity (PSR sort gate)” value is reported as “high polyreactivity”.

For “QVQLVESGGGLVQAGGSLRLICAASGSTFTGYAMGWYRQAPGKERELVAAISISGGRTFYADSVKGRFTISRDNAKNTVYLQMNSLKPEDTAVYYCAAFLRGSKYSFDYWGQGTQVTVSS”, the “polyreactivity (PSR sort gate)” value is listed as “high polyreactivity”.

Consider “QVQLVESGGGLVQAGGSLRLICAASGSTFVLYAMGWYRQAPGKERELVAAITKRGGNTYYADSVKGRFTISRDNAKNTVYLQMNSLKPEDTAVYYCAADHVRSPFDSWGQGTQVTVSS”, for which the “polyreactivity (PSR sort gate)” value is listed as “low polyreactivity”.

For the sequence “QVQLVESGGGLVQAGGSLRLICAASGSTFVPYTMAWYRQAPGKERELVAAISGSGGTDYADSVKGRFTISRDNGKNTVYLQMNSLKPEDTAVYYCAAYSRVVPSFYYWGQGTQVTVSS”, the “polyreactivity (PSR sort gate)” value is “low polyreactivity”.

In the case of “QVQLVESGGGLVQAGGSLRLICAASGSTFVRNAMGWYRQSPGKEREFVAAIRRSGGSTYYADSVKGRFTISRDNPKNTVYLQINSLKPEDTAVYDCAARNYYTYDYWGQGTQVTVSS”, the “polyreactivity (PSR sort gate)” value was “high polyreactivity”.

“QVQLVESGGGLVQAGGSLRLICAASGSTFWSNAMGWYRQAPGKERELVATINSGDGTNYADSVKGRFTISRDNAKNTVYLQMNSLKPEDTAVYYCAAEKYYPWGWYTYDYWGQGTQVTVSS”: the “polyreactivity (PSR sort gate)” value is recorded as “high polyreactivity”.

Consider “QVQLVESGGGLVQAGGSLRLICAASGSTFYEYAMGWYRQAPGKERELVAAISSNGARTYYADSVKVRFTISRDNAKNTVYLQMISLKPEDTAVYYCALVYRYAHTKYDYWGQGTQVTVSS”, for which the “polyreactivity (PSR sort gate)” value was “high polyreactivity”.

As for “QVQLVESGGGLVQAGGSLRLICAASGSTFYPNAIGWYRQAPGKERELVAAISYTGGRTYYADSVKGRFTISRDNAKNTVYLQMNSLKPEDTAVYYCAVLVVGSTTQDEPYFCGVEHDYWGQGTQVTVSS”, the “polyreactivity (PSR sort gate)” value is recorded as “low polyreactivity”.

“QVQLVESGGGLVQAGGSLRLICAASGSTFYWYMGWYRQAPGKERELVAAITSGGRTYYADSVKGRFTISRDNAKNTVYLQMNSLKPEDTAVYYCATTRRYAYRGGHNYWGQGTQVTVSS”: the “polyreactivity (PSR sort gate)” value is on record as “high polyreactivity”.

“QVQLVESGGGLVQAGGSLRLICAASGSTIAVYAIGWYRQAPGKERELVASISFSVVSTSYADSVKGRFTISRDNAKNTVYLQMNSLKPEDTAVYYCSTYYVRASYRYDYWGQGTQVTVSS”: the “polyreactivity (PSR sort gate)” value is “high polyreactivity”.

Values taken from the nanobody polyreactivity screen of Harvey et al. (2022).
